Test results as given in US20230212239A1, “INHIBITORS OF CBL AUTOINHIBITION AND RELATED METHODS” (THE HOSPITAL FOR SICK CHILDREN, priority 2020, published 2023).

T1: CBL TKBD-LHR-RING (2-436), unphosphorylated (Homo sapiens, UniProt P22681)
T1 construct: GST (N, cleaved yes); made in house; host or cells: E. coli BL-21
T1 sequence (P22681 2-436): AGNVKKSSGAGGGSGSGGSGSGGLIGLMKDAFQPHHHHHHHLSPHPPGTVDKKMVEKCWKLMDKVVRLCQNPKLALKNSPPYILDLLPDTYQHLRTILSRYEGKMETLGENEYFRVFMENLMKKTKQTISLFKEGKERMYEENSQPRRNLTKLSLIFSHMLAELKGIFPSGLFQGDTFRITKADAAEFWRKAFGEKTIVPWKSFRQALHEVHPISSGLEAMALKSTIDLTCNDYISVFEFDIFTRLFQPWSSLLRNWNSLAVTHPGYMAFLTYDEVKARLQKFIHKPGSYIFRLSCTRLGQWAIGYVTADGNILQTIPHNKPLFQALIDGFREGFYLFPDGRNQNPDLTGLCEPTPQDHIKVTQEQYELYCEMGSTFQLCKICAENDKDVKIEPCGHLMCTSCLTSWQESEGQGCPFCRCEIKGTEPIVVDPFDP


Target: T1, CBL TKBD-LHR-RING (2-436), unphosphorylated
Experiment: In vitro ubiquitination assay, anti-ubiquitin immunoblot
Format: biochemical
Conditions: anti-Ub immunoblot and E3LITE (FIGS. 11A,B, 10B-D)
Excerpt: Given that binding of SLAP2 and the LHR-RING would be mutually exclusive (FIG. 8C), we reasoned that binding of SLAP2 to CBL could displace the LHR-RING, thereby promoting the catalytically competent conformation. To test this hypothesis, an in vitro ubiquitination assay in which E3 ligase activity is detected by a smear at high molecular weight on an anti-ubiquitin (Ub) immunoblot was employed. […] To further compare and quantify CBL ubiquitin ligase activity, a chemiluminescence based assay which measures the total amount of polyubiquitylated products formed in an in vitro reaction was used. In this assay, production of polyubiquitylated proteins increased upon addition of SLAP2 or pSLAP2 to CBL, compared to CBL alone (FIG. 9C and FIG. 10A).
In vitro ubiquitination reactions were prepared with 20 pmol of CBL or pCBL and 60 pmol of hSLAP2 or phosphorylated hSLAP2 (pSLAP2) for both WT and mutants. Reagents were thawed and reactions prepared on ice. CBL and SLAP2 were mixed in PBS (with 5 mM βME, 5 mM caproic acid, 0.5 mM PMSF, and 0.5 mM Na3VO4) at rt for 5-10 min before addition of master mix (42 pmol E1 (UBE1, Boston Biochem or Ubiquitin-Proteasome Biotechnologies), 0.1 µmol E2 (UbcH5b/UBE2D2, Boston Biochem #E2-622), […], and 11.6 µmol ubiquitin (Boston Biochem #U-100H) in reaction buffer (0.2 M Tris pH 7.5, 10 mM MgCl2, 2 mM DTT). Reactions were incubated at 30° C. shaking at 500-700 rpm for 60-110 minutes and terminated by addition of SDS 2X loading buffer and boiling for 5-10 minutes. Equal volumes of each reaction were loaded on 12.5% SDS-PAGE gel, transferred to PVDF membrane, and immunoblotted for ubiquitin as per standard protocols (anti-ubiquitin antibody P4G7, BioLegend #838701, 1:1000; anti-mouse IgG HRP-linked antibody, Cell Signaling Technology #7076, 1:10000; Western Lightning Plus ECL, Perkin Elmer).

| Molecule | stimulation/activation of CBL ubiquitination activity by SLAP2 mutants versus WT |
| --- | --- |
| Phosphorylated SLAP2 L241R: phosphorylated SLAP2 point mutant L241R at CBL/SLAP2 interface (protein, UniProt Q9H6Q3 2-261, looked up, variant L241R, tyrosine phosphorylated, phosphorylated SLAP2 point mutant L241R at CBL/SLAP2 interface) Src-like-adapter 2: GSLPSRRKSLPSPSLSSSVQGQGPVTMEAERSKATAVALGSFPAGGPAELSLRLGEPLTIVSEDGDWWTVLSEVSGREYNIPSVHVAKVSHGWLYEGLSREKAEELLLLPGNPGGAFLIRESQTRRGSYSLSVRLSRPASWDRIRHYRIHCLDNGWLYISPRLTFPSLQALVDHYSELADDICCLLKEPCVLQRAGPLPGKDIPLPVTVQRTPLNWKELDSSLLFSEAATGEESLLSEGRRESLSFYISLNDEAVSLDDA | reduced stimulation of CBL ubiquitination activity compared to pSLAP2 WT |
| Phosphorylated SLAP2 S244E: phosphorylated SLAP2 point mutant S244E at CBL/SLAP2 interface (protein, UniProt Q9H6Q3 2-261, looked up, variant S244E, phosphorylated, phosphorylated SLAP2 point mutant S244E at CBL/SLAP2 interface) Src-like-adapter 2: GSLPSRRKSLPSPSLSSSVQGQGPVTMEAERSKATAVALGSFPAGGPAELSLRLGEPLTIVSEDGDWWTVLSEVSGREYNIPSVHVAKVSHGWLYEGLSREKAEELLLLPGNPGGAFLIRESQTRRGSYSLSVRLSRPASWDRIRHYRIHCLDNGWLYISPRLTFPSLQALVDHYSELADDICCLLKEPCVLQRAGPLPGKDIPLPVTVQRTPLNWKELDSSLLFSEAATGEESLLSEGLREELSFYISLNDEAVSLDDA | less stimulation of CBL ubiquitination activity than pSLAP2 WT |
